A word on the Tm: it is the temperature at the midpoint of the melting transition.

This is an account of results in FireProtDB (doi:10.1021/bi00437a058).

The conditions of the series: Bacillus amyloliquefaciens, pH 6.3, Fluorescence, whole UniProt chain shown.
The mark [1] stands for this setting: 25 °C, GdnHCl, MES 450 mM, reversible: yes (100%).
The mark [2] stands for this setting: Thermal, MES 50 mM, reversible: yes (>85%).

B1: Ribonuclease wild type, P00648 (protein)
chain: MMKMEGIALKKRLSWISVCLLVLVSAAGMLFSTAAKTETSSHKAHTEAQVINTFDGVADYLQTYHKLPDNYITKSEAQALGWVASKGNLADVAPGKSIGGDIFSNREGKLPGKSGRTWREADINYTSGFRNSDRILYSSDWLIYKTTDHYQTFTKIR
Take B1: under setting [1], the denaturant m value turned out to be 4.51 kcal/mol/M, the “denaturant midpoint (higher = more stable)” value stood at 1.97 M and the unfolding free energy came to 8.88 kcal/mol. Under setting [2], the Tm is 53.9 °C and the “unfolding enthalpy (van 't Hoff)” value came out at 125 kcal/mol.
